B1: Recombinant hIL21R protein (receptor)
chain: not shown
notes: also called human IL21 receptor; Hu-IL21R

One assay addresses T1, LC0030-1 (Homo sapiens (Human), UniProt P0DOX7 1-214; P0DOX5 2-449 = IgG part).
T1 construct: Antibody-cytokine fusion (immunocytokine) made by Sortase A conjugation; also called fusion protein prepared from Ab0030 containing one hIL21 (isoform 1); DAR1
Description: ELISA, recombinant hIL21R coated at 0.5 ug/mL, detection with anti-human-IgG (H+L)-HRP, OD450. How it is done: (§1) The binding activities of the fusion proteins to human IL21 receptor (hIL21R or Hu-IL21R) were determined using ELISA. Recombinant hIL21R protein were diluted using coating buffer (1×PBS) to 0.5 μg/mL and coated to an ELISA plate at 4° C. overnight. The plate was blocked with 5% slim milk powder in coating buffer at 37° C. for 1 h. […] Finally, 1:5000 diluted anti-human-IgG (H+L)-HRP was added. After an incubation at 37° C. for 1 h, TMB substrate was added for color development. The data was collected using a microplate reader.
(In general: In an ELISA, binding on a coated surface is turned into a signal by an enzyme label.)

Assay [1] addresses T2, Recombinant hPD-L1 protein (Acrobiosystems, PD1-H5253) (human, UniProt Q9NZQ7 19-238).
T2 construct: also called human PD-L1
Description: ELISA, recombinant hPD-L1 coated at 0.5 ug/mL, detection with anti-human-IgG (H+L)-HRP, OD450. As to the method: Recombinant hPD-L1 was diluted in coating buffer (1×PBS) to 0.5 μg/mL and coated to an ELISA plate at 4° C. overnight. The plate was blocked with 5% slim milk powder in coating buffer at 37° C. for 1 h. […] Finally, 1:5000 diluted anti-human-IgG (H+L)-HRP was added. After an incubation at 37° C. for 1 h, TMB substrate was added for color development. The data was collected using a microplate reader.

In assay [2] the target is T3, His-tagged human PD-L1 (hPD-L1-His) (human, UniProt Q9NZQ7 19-238, limits assumed).
T3 construct: not shown: His tag
T3 sequence (Q9NZQ7 19-238 limits assumed): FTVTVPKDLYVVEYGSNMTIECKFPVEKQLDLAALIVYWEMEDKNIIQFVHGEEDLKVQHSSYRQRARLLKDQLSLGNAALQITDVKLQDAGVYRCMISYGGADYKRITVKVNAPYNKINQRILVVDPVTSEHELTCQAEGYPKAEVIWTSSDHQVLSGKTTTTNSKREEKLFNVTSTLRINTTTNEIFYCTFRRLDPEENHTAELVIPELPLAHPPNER
Description: SPR (Biacore T200), Ab0033 captured on Protein A chip, hPD-L1-His 100 nM as analyte, 1:1 Langmuir fit. How it is done: (§2) The Biacore T200 biosensor is equipped with Sensor Chip Protein A. The proteins (diluted to 1 μg/mL) to be tested were injected at 10 μL/min into the Biacore T200 biosensor for 50 sec, in order to reach the required protein density (about 300 RU). Then His-tagged human IL21R (hIL21R-His, 200 nM) or human PD-L1 (hPD-L1-His, 100 nM) were injected at 30 μL/min into the system for 180 sec. The dissociation was monitored for 600 sec. After each cycle, glycine buffer pH 1.7 (30 μL/min, 30 sec) was used to regenerate the chip.
Data were processed with Biacore T200 evaluation software 3.0. The binding kinetics were analyzed by globally fitting the data with the 1:1 Langmuir binding model to obtain the association rate (kₒₙ) and dissociation rate (koff). The affinity (KD) was calculated using the formula: KD=koff/kₒₙ.
(SPR reads the build-up and loss of mass on a sensor chip optically.)

Assay [3] deals with T2, Recombinant hPD-L1 protein …. Description: ELISA, recombinant hPD-L1 (Acrobiosystems PD1-H5253) coated at 0.5 ug/mL, detection with anti-human-IgG (H+L)-HRP, OD450. How it is done: The binding activities of the fusion proteins to human PD-L1 (hPD-L1) were determined using ELISA. […] The plate was blocked with 5% slim milk powder in the coating buffer at 37° C. for 1 h. […] Finally, 1:5000 diluted anti-human-IgG (H+L)-HRP was added. After an incubation at 37° C. for 1 h, TMB substrate was added for color development. The data was collected using a microplate reader.

Assay [4] addresses B1. Description: ELISA, recombinant hIL21R coated at 0.5 ug/mL, detection with anti-human-IgG (H+L)-HRP, OD450. As to the method:
as §1

For assay [5], the target named is T4, His-tagged human IL21R (hIL21R-His) (human, UniProt Q9HBE5 20-232, limits assumed).
T4 construct: not shown: His tag
Description: SPR (Biacore T200), Ab0033 captured on Protein A chip, hIL21R-His as analyte. As to the method:
as §2

T2 sequence (Q9NZQ7 19-238 limits assumed): as above

B1: the binding result with LC0030-1 is “binds”.

B2: Ab0033 (antibody, human IgG1, kappa, N297A, V domains shown)
VH: QVQLQESGPGLVKPSETLSLTCTVSGYSITSGYNWHWIRQFPGNGLEWMGYIHHSSITNYNPSLKSRITISRDTSKNQFSLKLSSVTAADTATYYCAREGYDYDWFAYWGQGTLVTVSS
VL: DIVLTQSPDFQSVTPKEKVTITCRASQSISNNLHWYQQKPDESPKLLIKYASQSISGIPSRFSGSGSGTDFTLTINSVEAEDFAMYFCQQSKSWPFTFGQGTRLEIKR
notes: Signal peptides are not part of the purified protein; also called antibody moiety Ab0033; derived from Ab0002 (3F2)
In the case of B2, the “EC50 (read off the curve)” value in assay [1] was roughly 0.1 nM. In assay [2], this molecule showed a Kd of 0.608 nM, an off-rate (koff) of 0.0012 s⁻¹ and a kon of 1.98e+06 M⁻¹ s⁻¹. Further, in assay [3], the “EC50 (read off the curve)” value was roughly 0.08 nM. Also, the binding result in assay [4] was “no binding (tested: about 40 nM)”. Also, the binding result in assay [5] is recorded as “no binding (tested: 200 nM)”.

What is called EC50 (read off the curve) is the midpoint of the concentration-response curve. What is called Kd is the equilibrium constant for the complex coming apart. A lower Kd goes with higher affinity. What is called koff is the first-order rate constant of dissociation. Higher therefore signals fast dissociation. One may read the kon as the second-order rate constant of association.

The values above are taken from patent US20250043005A1 (GENEQUANTUM HEALTHCARE SUZHOU, published 2025).
